This is an account of results in the nanobody polyreactivity screen of Harvey et al. (2022).

The data set is described as follows: yeast display, Sf9 membrane polyspecificity reagent, FACS + sequencing; frameworks hold sequencing errors. An outline of the steps: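 In a synthetic yeast display library (Saccharomyces cerevisiae BJ5465), nanobody expression was induced with galactose for 36–48 hours. FACS gates were set low and high (top ~1%) using anti-HA fluorescence for expression and streptavidin fluorescence for binding of the Sf9 membrane reagent. Each polyreactivity label is drawn from the gate of origin.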
On to “QVQLVESGGGLVQAGGSLRLSCAASGSIFYNNAMGWYRQAPGKERELVAAISLRGGSTYYADSVKGRFTISRDNAKNTVYLQMNSLKPEDTAVYYCAAGVRSPFRGGYYWGQGTQVTVSS”, for which the “polyreactivity (PSR sort gate)” value is “high polyreactivity”.

Regarding “QVQLVESGGGLVQAGGSLRLSCAASGSIFYNYSMGWYRQAPGKERELVATITRSDGSTYYADSVKGRFTISRDNAKNTVYLQMNSLKPEDTAVYYCNADSLWDRAFGYYYWGQGTQVTVSS”, the “polyreactivity (PSR sort gate)” value was “low polyreactivity”. As to “QVQLVESGGGLVQAGGSLRLSCAASGSIFYPNAMGWYRQAPGKERELVAAISIGGGRTYYADSVKGRFTISRDNAKNTVYLQMNSLKPEDTAVYYCAATRVDSDDRTRFYYWGQGTQVTVSS”, the “polyreactivity (PSR sort gate)” value is listed as “high polyreactivity”. As for “QVQLVESGGGLVQAGGSLRLSCAASGSIFYPNVMGWYRQAPGKERELVATISRGGTTNYADSVKGRFTISRDNAKNTVYLQMNRLKPEDTAVYYCAAPIGDVYVGKGYDSWGQGTQVTVSS”, the entry is “low polyreactivity”. Consider “QVQLVESGGGLVQAGGSLRLSCAASGSIFYPYAMGWYRQAPGKERELVAAISRSGGSTRYADSVKGRFTISRDNAKNTVYLQMNSLKPEDTAVYYCAVRVFYGVGLIGYYYWGQGTQVTVSS”, for which the “polyreactivity (PSR sort gate)” value is reported as “high polyreactivity”. The result for “QVQLVESGGGLVQAGGSLRLSCAASGSIFYPYAMGWYRQAPGKERELVAAISYNGGSTYYADSVKGRFTISRDNAKNTVYLQMNSLKPEETAVYYCAARPYHGKLDYWGQGTQVTVSS” reads “low polyreactivity”. The result for “QVQLVESGGGLVQAGGSLRLSCAASGSIFYPYAMGWYRQAPGKERELVAVINDTGSTYYADSVKGRFTISRDNAKNTVYLQMNSLKPEETAVYYCNTATYVDSFPDPGDHWGQGTQVTVSS” reads “low polyreactivity”; that for “QVQLVESGGGLVQAGGSLRLSCAASGSIFYPYVMGWYIQAPGKESELVASISRRGGRTYYADSVKGRFTISRDYAKNTVYLEMNSLKPEDTAVYYCAKRTYDSFYGYYYWGQVTQVTVSS”, “high polyreactivity”; that for “QVQLVESGGGLVQAGGSLRLSCAASGSIFYQNVMGGYRQAPGKERELVAAISSSGDSTYYADSVKGRFTISRDNAKNTVYLQMNSLKPEDTAVYYCAAEPEYVSGPYDYWGQGTQVTVSS”, “low polyreactivity”. The result for “QVQLVESGGGLVQAGGSLRLSCAASGSIFYQYAMGWYRQAPGKERELVAAISQNGGRTYYADSVKGRFTISRDNAKNKVYLQMNRLKPEDTAVYYFAARHAPTRYGYWGQGTEVTVSS” reads “high polyreactivity”; that for “QVQLVESGGGLVQAGGSLRLSCAASGSIFYRNAMGGYRQAPGKERELVAAIAGTGGSTYYADSVKGRFTISRDNAKNTVYLQMNSLKPEDTAVYYCASGVTYRHDYWRQGTQVTVSS”, “high polyreactivity”; that for “QVQLVESGGGLVQAGGSLRLSCAASGSIFYRNAMGWYRQAPGKERELVAAISSDGSTNYADSVKGRFTISRDNAKNTVYLQMNSLKPEDTAVYYCNVPYYLPSYLSGYDYWGQGTQVTVSS”, “low polyreactivity”. With “QVQLVESGGGLVQAGGSLRLSCAASGSIFYRNAMGWYRQAPGKERELVAAITSSGGSTYYADSVKGRFTISRDNAKNTVYLQMNSLKPEDTAVYYCATRGWSKQLYGGYTQYYYWGQGTQVTVSS”, the “polyreactivity (PSR sort gate)” value is “high polyreactivity”.

For “QVQLVESGGGLVQAGGSLRLSCAASGSIFYRNAMGWYRQAPGKERELVAAITSSGGSTYYADSVKGRFTISRDNAKYTVYFQMNSLKPEDTAVYYCNSVVTKFAKCRFLYYYWGQGTQVTVSS”, the “polyreactivity (PSR sort gate)” value was “high polyreactivity”. As for “QVQLVESGGGLVQAGGSLRLSCAASGSIFYRNAMGWYRQAPGKERELVAVITRRGGRTYYADSVKGRFTISRDNAKNTVDLQMNSLKPEDTAVYYCNADTANYADGLDYWGQGTQVTVSS”, the entry is “low polyreactivity”; as for “QVQLVESGGGLVQAGGSLRLSCAASGSIFYRNTMGWYRQAPGKERELVAAITSGGGTNYADSVKGRFTISRDNAKNTVYLQMNSLKPEDTAVYYCAASRQYTVGFYSWGQGTQVTVSS”, “high polyreactivity”. As for “QVQLVESGGGLVQAGGSLRLSCAASGSIFYRNTMGWYRQAPVKERELVAAITSSGDSTYYADSVKGRFTISRDNAKNTVYFQMNSLKPEDTAVYYCAKDQHDFLEALYDSWGQGTQVTVSS”, the entry is “low polyreactivity”.

With “QVQLVESGGGLVQAGGSLRLSCAASGSIFYRNVMGWYRQAPGKERELVAAISWSGGSTYYADSVKGRFTISRDKSKNTVYLQMNSLKPEDTAVYYCAADIPKTCYPYAFEYWGQGTQVTVSS”, the “polyreactivity (PSR sort gate)” value is reported as “low polyreactivity”. As for “QVQLVESGGGLVQAGGSLRLSCAASGSIFYRYAMGWYRQAPGKERELVAAIRSRTGRTYYADSVKGRFTISRDNAKNTVYLQMNCLNPEDTAVYYCAADKYFSARFDYWGQGTQVTVSS”, the entry is “high polyreactivity”; as for “QVQLVESGGGLVQAGGSLRLSCAASGSIFYRYAMGWYRQAPGKERELVAAISFRTGSTYYADSVKGRFTISRDNAKNTVYFQMNSLKPEDTAVYYCAAEQLSTLRQRFDSWGQGTQVTVSS”, “high polyreactivity”; as for “QVQLVESGGGLVQAGGSLRLSCAASGSIFYRYAMGWYRQAPGKERELVAAISYSGGSTYYADSVKGRFTISRDNAKNTVYLQMNSQKPEDTAVYYCAKDYPPPISDYSRYYGYGYWGKGTQVTVSS”, “low polyreactivity”. The result for “QVQLVESGGGLVQAGGSLRLSCAASGSIFYRYAMGWYRQAPGKERELVATIRSGGSTNYADSVKGRFTISRDNAKNTVYLQMKSLKPEDTAVYYCAAVTPETQPDSGPVPPMDSWGQGTQVTVSS” reads “low polyreactivity”; that for “QVQLVESGGGLVQAGGSLRLSCAASGSIFYRYSMGWYRPAPGKESELVATITQSGVTTYYADSVKGRFTISRDNAKNTVYLELNSVKPEDTAVYYCAASYYYYLGPFFRKFDWGQGTQVTVSS”, “low polyreactivity”. As for “QVQLVESGGGLVQAGGSLRLSCAASGSIFYSNAMGWYRQAPGKEREFVATITQTGSSTYDADSVKGRFTISRDNAKNTVYLQMNSLKPEVTAVYYCAVDWILYEYEDDFWYRYDYWGQGTQVTVSS”, the entry is “low polyreactivity”; as for “QVQLVESGGGLVQAGGSLRLSCAASGSIFYSNAMGWYRQAPGKERELVAAISGSGGTTYYADSVKGRFTISRDNAKNTVYIQMNSLKPEDTAVYYCAAKPRVRVRLSDYWGQGTQVTVSS”, “high polyreactivity”.

Regarding “QVQLVESGGGLVQAGGSLRLSCAASGSIFYSNTMGWYSQAPGKERELVAAISSSSGRTYYADSVKGRFTISRDNAKNTVYLQMNSLKPEDTAVYYCARRYGWGQGTQVTVSS”, the “polyreactivity (PSR sort gate)” value is reported as “high polyreactivity”. Take “QVQLVESGGGLVQAGGSLRLSCAASGSIFYSNVMGWYRQAPGKERELVASITNGGGTYYADSVKGRFTISRDNAKNTVYLQMNSLKPEDTAVYYCAADPDRTAYDYWGQGTQVTVSS”: the “polyreactivity (PSR sort gate)” value is reported as “low polyreactivity”. Take “QVQLVESGGGLVQAGGSLRLSCAASGSIFYSYAKGSYLQAPGKERELVADITFSGVSTYYADSVKGRFTISRDNAKNTVYLQMKSLKTEDTAVYYGAADGVSRWYLYRWYDYDYWGQGTQVTVSS”: the “polyreactivity (PSR sort gate)” value was “low polyreactivity”. The result for “QVQLVESGGGLVQAGGSLRLSCAASGSIFYSYAMGWYIQAPGKERELVAVISSGGRTNYADSVKGRFTISRDNAKNTVYLQMNSLKPEDTAVYYCAARNYLYRYARAYDYWGQGTQVTVSS” reads “high polyreactivity”.

Take “QVQLVESGGGLVQAGGSLRLSCAASGSIFYSYAMGWYRQAPGKERELVADITITGSTYYADSVKGRFTISRDNAKNTVYLQMNSLKPDDTAVYYCNAVLAPGGYDYWGQGTQVTVSS”: the “polyreactivity (PSR sort gate)” value is on record as “low polyreactivity”. As for “QVQLVESGGGLVQAGGSLRLSCAASGSIFYTNAMGWYRQAPGKERELVAAISCSGDSTYYADSVKGRFTISRDNAKNTVYLQMNSLKPEDTAVYYCNADRRSYNGFRYYYWGQGTQVTVSS”, the entry is “low polyreactivity”; as for “QVQLVESGGGLVQAGGSLRLSCAASGSIFYTNAMGWYRQAPGKERELVAAISISGSTYYADSVKGRFTISRDNAKNTVYLQMNSLKPEDTAVYYCAAGPGYVRYPRSGVWYVTLYDYWGQGTQVTVSS”, “high polyreactivity”. Turning to “QVQLVESGGGLVQAGGSLRLSCAASGSIFYTNAMGWYRQAPGKERELVAAYADSVKGRFTISRDNAKNTVYLQMNSLKPEDTAVYYCNAVLPIYRYLYEGDYWGQGTQVTVSS”, the “polyreactivity (PSR sort gate)” value was “low polyreactivity”.

As for “QVQLVESGGGLVQAGGSLRLSCAASGSIFYTNAMGWYRQAPGKERELVASITGGGSTKYADSVKGRFTISRDNAKNTVYLQMNSLKPEDTAVYYCAKRRYWPLDWGQGTQVTVSS”, the “polyreactivity (PSR sort gate)” value is listed as “high polyreactivity”.

Take “QVQLVESGGGLVQAGGSLRLSCAASGSIFYTYAMGWYRQAPGKERELVAAISRSGGSTYYADSVKGRFTISRDNAKNTVYVQMNSLKPEETAVYYCAAVSYRGRGYWGQGTQVTVSS”: the “polyreactivity (PSR sort gate)” value was “high polyreactivity”. As for “QVQLVESGGGLVQAGGSLRLSCAASGSIFYTYTMGWYRQAPGKERELVAAISWSGGSTYYADSVKGRFTISRDNAKNTVYLQMISLKPEDTAVYYCAAYGTGYYGYDYWGQGTQVTVSS”, the entry is “low polyreactivity”; as for “QVQLVESGGGLVQAGGSLRLSCAASGSIFYVNAMGWYRQAPGKERELVAAISVRGGRTYYADSVKGRFTISRDNAKNTVYLQMNSLKPEDTAVYYCATRISTVGRYDYWGQGTQVTVSS”, “high polyreactivity”. As for “QVQLVESGGGLVQAGGSLRLSCAASGSIFYVNTMVWYRQAPGKERELVAGITSRGGSTYYADSVKGRFTISRDNAKNSVYLQMNSLKPEDTAVYYCAKRAYGTALYRGYGYWGQGTQVTVSS”, the entry is “low polyreactivity”; as for “QVQLVESGGGLVQAGGSLRLSCAASGSIFYVYAMGWYGQAPGKDRELVASISWGDSSTYYADSVKGRFTISRDTAKNTVYLQMNSLKPEDTAVYYCAADEYRQYALYDYWGQGTQVTVSS”, “low polyreactivity”; as for “QVQLVESGGGLVQAGGSLRLSCAASGSIFYVYAMGWYRQAPGKERELVAAITARVTSTYYADSVKGRFTISRDNAKNTVYLQMNSLKPEDTAVYSCAARTSYKTGYRKYDYWGQATQVTVSS”, “low polyreactivity”.

Regarding “QVQLVESGGGLVQAGGSLRLSCAASGSIFYVYAMGWYRQAPGKERELVAAITNYADSVKGRFTISRDNAKNTVYLQMNSLKPEDTAVYYCAADWWRVEMDYWGQVTQVTVSS”, the “polyreactivity (PSR sort gate)” value is reported as “low polyreactivity”.
